Consider 31 sequences from the supplement of paper PMC9170038.

The data set relates to MS2 coat protein. Kind of data set: apparent KD of MS2 coat protein; designed switch direction (-1 OFF switch, 1 ON switch): -1; higher = weaker reporter binding. In outline: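 Designed RNA switches with common flanks were transcribed on Illumina chips by stalled E. coli RNA polymerase and titrated with SNAP-549-labelled MS2 coat protein, from 0.7 or 1.5 nM doubling to 3 µM, in Tris-HCl pH 7.5 buffer with KCl, MgCl2, BSA, DTT, tRNA and Tween-20. Steps lasted 0.8–1.5 h (lowest) to 10–20 min (highest). Titrations ran without input, with 200 uM small-molecule ligand, or with an oligonucleotide input. Normalised cluster fluorescence was curve-fitted, and apparent KD is the per-design median over clusters.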

The mark [1] stands for this setting: input ligand: microRNA oligo, concentration not stated.
Setting [2] is: Eterna round: R95, input ligand: FMN 200 uM.
The mark [3] stands for this setting: Eterna round: R95, input ligand: microRNA oligo, concentration not stated.
[4] abbreviates: Eterna round: R95, input ligand: none.

Regarding “ACAUGAGGAUCACCCAUGUUUGGCUGGUUUUCUCCGGCUGUCGAGGAUAUAGUACGGUAUCCGCGCUAGAAGGUGAGGGUCGGC [Aenatbe mod 2] (Eterna round: R96, puzzle: Exclusion NG 3)”, the “apparent KD of MS2 coat protein” value is, setting by setting: (input ligand: FMN 200 uM) 17.1 nM; under setting [1], 12.2 nM; (input ligand: none) 19 nM.
Take “ACAUGAGGAUCACCCAUGUUUUUUGGGUACUUUUGUUUCUGCAAGGAUAUGCAUUAUUUAUAUACGCAGAAGGUGCAUUACUUC [JR_ExcNG3_Sub061] (Eterna round: R96, puzzle: Exclusion NG 3)”: the “apparent KD of MS2 coat protein” value under setting [1] stood at 501 nM.
Take “ACAUGCCGCGCAGGAUAUGGGACACAUGAGGAUCACCCAUGUGGUUUCAUGUCUAACCAAGCGUCCCAGAAGGGCGUGAACAUG [Ex NG2 #29] (Eterna round: R96, puzzle: Exclusion NG 2)”: the “apparent KD of MS2 coat protein” value was determined as 30.9 nM (input ligand: FMN 200 uM), 16.1 nM under setting [1] and 25.2 nM (input ligand: none).
“ACAUGGAAGCAGGAUAUGCUUGUAUAAUUGAAAGCAGAAGGGCUAACAUGAGGAUCACCCAUGUAAGAGGUCUA [JR_E6_Sub060] (puzzle: Exclusion 6)”: the “apparent KD of MS2 coat protein” value amounted to 91 nM under setting [2], 21 nM under setting [3] and 24.7 nM under setting [4].
With “ACAUGGAAGCAGGAUAUGCUUGUAUAAUUGUUUGCAGAAGGGCUAACAUGAGGAUCACCCAUGUAAGAGGUCUA [JR_E6_Sub061] (puzzle: Exclusion 6)”, under setting [3], the “apparent KD of MS2 coat protein” value stood at 15.9 nM.
In the case of “ACAUGUAAUGCAGGAUAUGGGACACAUGAGGAUCACCCAUGUGACCAGAGGUAAUGCUAAGAGUCUCAGAAGGGUAUGUACAUG [Ex NG2 #49] (Eterna round: R96, puzzle: Exclusion NG 2)”, the “apparent KD of MS2 coat protein” value is 22.5 nM (input ligand: FMN 200 uM), 14.5 nM under setting [1] and 19 nM (input ligand: none).
The matching figures for “ACAUGUCAUCGAGGAUAUUGCACACAUGAGGAUCACCCAUGUAUACGGUUGCUCUUGCGUGAGUUCGAGAAGGCGAUGUACAUU [Ex NG2 #86] (Eterna round: R96, puzzle: Exclusion NG 2)”: 109 nM, 198 nM and 313 nM.
The matching figures for “ACAUGUCAUUGAGGAUAUUGCAAACAUGAGGAUCACCCAUGUAUACGGAUGCUCUUACGUGGGUUCGAGAAGGCGAUGUACAUU [Ex NG2 #92] (Eterna round: R96, puzzle: Exclusion NG 2)”: 819 nM, 345 nM and 429 nM.
The matching figures for “ACAUGUCAUUGAGGAUAUUGCACACAUGAGGAUCACCCAUGUAUACGGAUGCUCUUACGUGAGUUCGAGAAGGCGAUGUACAUU [Ex NG2 #89] (Eterna round: R96, puzzle: Exclusion NG 2)”: 290 nM, 121 nM and 160 nM.
“ACAUGUUGCGCAGGAUAUGGGACACAUGAGGAUCACCCAUGUGGUUACAUGUCUUACCAAGCGUCCCAGAAGGGCGUGAACAUG [Ex NG2 #31] (Eterna round: R96, puzzle: Exclusion NG 2)”: the “apparent KD of MS2 coat protein” value by setting is: (input ligand: FMN 200 uM) 28.6 nM; under setting [1], 18.4 nM; (input ligand: none) 22.1 nM.
With “ACAUUUGUAGAGGAUAUCAAGCCCAGGCUCCGUUGAGAAGGUUACACAUGAGGAUCACCCAUGUCCUCCUUACC [Eternabot (L1) Solution 4] (Eterna round: R97, puzzle: Exclusion 6)”, the “apparent KD of MS2 coat protein” value (input ligand: FMN 200 uM) was 168 nM and the “apparent KD of MS2 coat protein” value (input ligand: none) worked out at 162 nM.
The matching figures for “ACCAUGUCAGGAUAUGCCCGUGUUCGAUCCGAGAAACACGAGCAGAAGGGACAUGAGGAUCACCCAUGUCCAAG [Eternabot (Original) Solution 1] (Eterna round: R97, puzzle: Exclusion 4)”: 45.2 nM and 16.2 nM.
On to “ACCCAACAUGAGGAUCACCCAUGUCAGGAUAUCCAUCACUAUCACGAAAGGAUAGGAUGGAGAAGGGACAGAGG [ChP 04-04-2015 #3] (puzzle: Exclusion 1)”, for which the “apparent KD of MS2 coat protein” value under setting [2] came out at 325 nM, the “apparent KD of MS2 coat protein” value under setting [3] stood at 99.8 nM and the “apparent KD of MS2 coat protein” value under setting [4] amounted to 158 nM.
The matching figures for “ACCUCACAUGAGGAUCACCCAUGUCAGGAUAUGUACCCGAUCAAGUCAGAGAUCGGAAGCAGAAGGGACUGCGG [Bemabebe] (puzzle: Exclusion 1)”: 26.5 nM, 99.3 nM and 86.5 nM.
As to “ACCUCACAUGAGGAUCACCCAUGUCAGGAUAUUCAAACAGGCGAAACUCCGCCUUCUCGAAGAAGGGACAUUAA [Israon] (Eterna round: R96, puzzle: Exclusion 1)”, the “apparent KD of MS2 coat protein” value by setting is: (input ligand: FMN 200 uM) 82.1 nM; under setting [1], 14.6 nM; (input ligand: none) 17.7 nM.
Turning to “ACCUCACAUGAGGAUCACCCAUGUCAGGAUAUUCAAACAGGCGAAACUCCGCCUUCUCGAAGAAGGGACAUUAA [Israon] (puzzle: Exclusion 1)”, under setting [3], the “apparent KD of MS2 coat protein” value is 16.2 nM.
As for “ACCUCACUUGAGGAUCACCCAAGUCAGGAUAUACUCGUUUGCCACAAAACGCGGCAUUGUAGAAGGGACGGGCU [Esusso] (Eterna round: R97, puzzle: Exclusion 1)”, the “apparent KD of MS2 coat protein” value runs as follows: (input ligand: FMN 200 uM) 30 nM; (input ligand: none) 21.5 nM.
The matching figures for “ACCUCACUUGAGGAUCACCCAAGUCAGGAUAUACUCGUUUGCCGCACGACGCGGCAUUGUAGAAGGGACGGGCU [Soraedrale] (Eterna round: R97, puzzle: Exclusion 1)”: 34.1 nM and 18.1 nM.
Turning to “ACCUUAAAAGUGAGGAUAUCUAGGGCCAAAUGGCCGGAGAAGGCACAUGAGGAUCACCCAUGUAACGCCAUGGA [Beinat] (puzzle: Brourd's mod of Exclusion 4)”, under setting [3], the “apparent KD of MS2 coat protein” value worked out at 13.9 nM.
On to “ACCUUACAUGAGGAUCACCCAUGUCAGGAUAUCUCGGACGGCUGAAAACCAACCGUCCAGAGAAGGGACGAGGA [Solamaso] (puzzle: Exclusion 1)”, for which the “apparent KD of MS2 coat protein” value under setting [3] was determined as 12.5 nM.
The same measure, in the same setting: next, “ACCUUACAUGAGGAUCACCCAUGUCAGGAUAUCUCGGGCGGCUGGAGACCAGCCGCCCAGAGAAGGGACGAGGA [Engeisbe] (puzzle: Exclusion 1)”: 12.2 nM.
For the sequence “ACGAUUGUAGGAUAUACUUGGAGAGUGUUCACAUAUUAACGACAUGAGGAUCACCCAUGUAGAAGGGCAAUCGG [Eternabot (L1) Solution 22] (Eterna round: R97, puzzle: Exclusion 2)”, the “apparent KD of MS2 coat protein” value runs as follows: (input ligand: FMN 200 uM) 174 nM; (input ligand: none) 421 nM.
On to “ACGCAUUGCCAAAGGUAGUGCGUAACAUGAGGAUCACCCAUGUAGGAUAUGGUAGGCUUUGCUUACCAGAAGGACAUAAUAAUU [Mat - Exclusion NG 3 - Mod of JL - D4] (Eterna round: R96, puzzle: Exclusion NG 3)”, for which the “apparent KD of MS2 coat protein” value (input ligand: FMN 200 uM) came out at 43.6 nM, the “apparent KD of MS2 coat protein” value under setting [1] was found to be 22.7 nM and the “apparent KD of MS2 coat protein” value (input ligand: none) stood at 27.8 nM.
For “ACGUAACGAGCUUGGUCCAACAUGAGGAUCACCCAUGUGCUCGUCUUAUAACGUACUGUCACGUUAGUGAUAGUGCG [Sensor v3, turn-off variant 1 (MOD of Eli's v1-13 v.6)] (puzzle: Sensor v3, turn-off variant 1)”, the “apparent KD of MS2 coat protein” value is 286 nM under setting [2], 194 nM under setting [3] and 360 nM under setting [4].
For the sequence “ACGUAUAGAGGAUAUACAGAAUAUUACAUGAGGAUCACCCAUGUUCUUCAAUGUAUAUUUGUAGAAGGCUAAUGAA [EX-5 Malc#8] (puzzle: Exclusion 5)”, the “apparent KD of MS2 coat protein” value under setting [3] was found to be 62.3 nM.
Regarding “ACGUGGGCCCUUAGUGAACAUGAGGAUCACCCAUGUAACCACAAGGAUAUCUACGCCAGCACGCGAGAGAAGGUGUGAAAUAAU [Maorbetiza] (Eterna round: R96, puzzle: Exclusion NG 3)”, the “apparent KD of MS2 coat protein” value was 132 nM (input ligand: FMN 200 uM), 35.4 nM under setting [1] and 44.8 nM (input ligand: none).
As to “ACUCAGUGAGGAUAUCGCCAGAGAGCCGCAACAGCUCCUGAUGAGAAGGCACAUGAGGAUCACCCAUGUAAGCA [EX4 C.19] (Eterna round: R97, puzzle: Exclusion 4)”, the “apparent KD of MS2 coat protein” value was found to be 321 nM (input ligand: FMN 200 uM) and 116 nM (input ligand: none).
The matching figures for “ACUCUAUAGUAGGAUAUCAUCAAACUAUUGUGAUGAGAAGGACUAACAUGAGGAUCACCCAUGUUAACGUGAAG [Mod of Brourd 5 - Jieux - Exclusion 6] (Eterna round: R97, puzzle: Exclusion 6)”: 24.3 nM and 21.1 nM.
“ACUGCCACAGGAUAUACGAAACUCUUGGGUUCCGCCGUGUGACAUGAGGAUCACCCAUGUAGAAGGGUGGCUUA [Atbiinza] (puzzle: Exclusion 2)”: the “apparent KD of MS2 coat protein” value under setting [3] was 398 nM.
Turning to “ACUGUUUGAUACCUCUUAUACAUGAGGAUCACCCAUGUUAUCGAGGAUAUGCAUUAGAGUGGUUAGCAGAAGGCGAUGUAAUUG [JR_ExcNG3_Sub032] (Eterna round: R96, puzzle: Exclusion NG 3)”, the “apparent KD of MS2 coat protein” value runs as follows: (input ligand: FMN 200 uM) 30.8 nM; under setting [1], 12.1 nM; (input ligand: none) 13.5 nM.
Consider “ACUUACUGAGGAUAUACUUAGAUUUACAUGAGGAUCACCCAUGUUCCUCUAUGUAUAUAUGUAGAAGGCAGAAGUU [Mat - Exclusion 5 - JL Mod - D49] (Eterna round: R97, puzzle: Exclusion 5)”, for which the “apparent KD of MS2 coat protein” value was 216 nM (input ligand: FMN 200 uM) and 38.1 nM (input ligand: none).
